As usually defined, the Km is the concentration of substrate that gives half-maximal velocity.

The subject of this data set is T1, Nc1ncnc2c1ncn2[C@@H]1O[C@H](COP(=O)(O)OP(=O)(O)OP(=O)(O)O)[C@@H](O)[C@H]1O.
T1 construct: full length (441 residues), N-terminal His6 tag (pET28a), E. coli BL21(DE3); monomer
Description: coupled pyruvate kinase / lactate dehydrogenase assay, NADH depletion. As to conditions: 20 mM maltose, 10 mM MgCl2, 50 mM sodium phosphate pH 7.5, 300 mM NaCl, 10% glycerol, no TreS. The data set is classed as biochemical, Mycolicibacterium smegmatis.
Description: coupled pyruvate kinase / lactate dehydrogenase assay, NADH depletion on Msm Pep2 (M. smegmatis maltokinase, MsPep2)

In the case of “Msm Pep2 (M. smegmatis maltokinase, MsPep2) (Mycolicibacterium smegmatis MC2 155)”, the Michaelis-Menten constant (Km) is 76 ± 7 µM.

(Values after publication PMC6509496, “Crystal structure of the TreS:Pep2 complex, initiating α-glucan synthesis in the GlgE pathway of mycobacteria” (The Journal of Biological Chemistry, 2019).)
